Results: patent publication US20080181886A1 (Genentech, published 2008)

T1: Murine APRIL (mouse, UniProt Q9D777 105-241, limits assumed)
T1 sequence (looked up): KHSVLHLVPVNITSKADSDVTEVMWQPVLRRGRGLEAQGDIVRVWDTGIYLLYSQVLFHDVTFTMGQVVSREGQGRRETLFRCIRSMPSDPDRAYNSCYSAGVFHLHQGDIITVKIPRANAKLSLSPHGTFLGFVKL


Biological target: T1, Murine APRIL
Assay: NNS library, phage display
Protocol: (§1) This new phage library was subjected to sorting against either BAFF, APRIL or the display target antibody. After 3 rounds of sorting, approximately 48 clones were picked from each selection and the DNA sequences of the phage clones were determined. […] The normalized F′ value corrects for display bias and is calculated as the percent occurrence to percent degeneracy ratio for ligand selection divided by the percent occurrence to percent degeneracy ratio for display efficiency. Percent occurrence is calculated by dividing the number of times a particular amino acid appeared at a particular position by the total number of amino acids sequenced at that position followed by multiplying by 100. Percent degeneracy is calculated by dividing the degeneracy in code for a particular amino acid divided by the total degeneracy possible at that position followed by multiplying by 100 (e.g., if only A, G and I were selected, total degeneracy possible would be 5).

Compared with SLSCRKEQGKFMDHLLRDCISCASICGQHPKQCAYFCENKLR (receptor, phage library variant, format as m9) [TACI_d2 Y79M], SLSCRKEQGKFEDHLLRDCISCASICGQHPKQCAYFCENKLR (receptor, phage library variant, format as m9) [TACI_d2 Y79E] is higher in “F' APRIL” value: 0 for the first, 8 for the second.

Biological target: T2, human BAFF (human, UniProt Q9Y275 82-285, limits assumed)
T2 sequence (Q9Y275 82-285 limits assumed): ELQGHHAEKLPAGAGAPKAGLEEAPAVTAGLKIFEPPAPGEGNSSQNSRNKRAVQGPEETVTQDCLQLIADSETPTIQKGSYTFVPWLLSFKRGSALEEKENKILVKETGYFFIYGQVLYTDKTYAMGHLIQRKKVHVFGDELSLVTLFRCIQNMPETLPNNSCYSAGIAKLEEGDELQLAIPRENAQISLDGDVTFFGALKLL
Assay: NNS library, phage display
Protocol: as §1

SLSCRKEQGKFMDHLLRDCISCASICGQHPKQCAYFCENKLR (receptor, phage library variant, format as m9) [TACI_d2 Y79M] and SLSCRKEQGKFEDHLLRDCISCASICGQHPKQCAYFCENKLR (receptor, phage library variant, format as m9) [TACI_d2 Y79E] are the same in “F' BAFF” value: 0 for the first, 0 for the second.

Biological target: T1, Murine APRIL
Assay: shotgun scan, phage display
Excerpt: (§2) Phage from each of the libraries described above were subjected to rounds of binding selection against APRIL, BAFF, or anti-tag antibody (3C8:2F4 Genentech, Inc.) immobilized on 96-well Nunc Maxisorp immunoplates (Sidhu, 2001). BSA-coated wells were used to determine non-specific background binding. Phage eluted from each target were propagated in E. coli XL1-Blue in the presence of M13K07 helper phage; amplified phage were used for selection against the same target in the […] round. […] Enrichment was calculated from the ratio of the phage titer eluted from the target-coated wells to the phage titer eluted from the BSA-coated wells. Individual clones from each library and selection target were then grown in a 96-well format in 400 ul of 2YT medium supplemented with carbenicillin and KO7 helper phage. […] Sequences of acceptable quality were translated and aligned. For APRIL-binding, 71, 40, and 54 sequences were analyzed from libraries one, two and three, respectively. For BAFF-binding, 70, 50, and 53 sequences were analyzed for libraries one, two and three, respectively. For the display selection, a minimum of 47 sequences were analyzed for each library. […] F values describe the effect of mutation on target binding, while accounting for differences in display efficiencies, with values >1 representing deleterious mutations and those <1 representing favorable mutations.

First: SLSCRKEQGKFYAHLLRDCISCASICGQHPKQCAYFCENKLR (receptor, phage library variant, format as m9) [TACI_d2 D80A]
Second: SLSCRKEQGTFYDHLLRDCISCASICGQHPKQCAYFCENKLR (receptor, phage library variant, format as m9) [TACI_d2 K77T]
The “F (APRIL)” value of the first is higher: > 43 for the first, 0.7 for the second.

First: SLSCRKEQGKFYDHLLRDCISCASICGQHPTQCAYFCENKLR (receptor, phage library variant, format as m9) [TACI_d2 K98T]
Second: SLSCRKEQGKFYDHLLRDCISCASICGQHPKQCAYFCENTLR (receptor, phage library variant, format as m9) [TACI_d2 K107T]
The “F (APRIL)” value of the first is higher: 6.4 for the first, 1.1 for the second.

First: SLSCRKEQGKFYDHLLRDCISCASICGQHPKQCAYVCENKLR (receptor, phage library variant, format as m9) [TACI_d2 F103V]
Second: SLSCRKEQGKFYDHLLRDCTSCASICGQHPKQCAYFCENKLR (receptor, phage library variant, format as m9) [TACI_d2 I87T]
The “F (APRIL)” value of the first is lower: 0.6 for the first, > 19 for the second.

Going from SLSCRKEQGKFYDHLLRDCVSCASICGQHPKQCAYFCENKLR (receptor, phage library variant, format as m9) [TACI_d2 I87V] to SLSCRKEQGKFYDHALRDCISCASICGQHPKQCAYFCENKLR (receptor, phage library variant, format as m9) [TACI_d2 L82A], the “F (APRIL)” value rises from 1.4 to > 29.

First: SLSCRAEQGKFYDHLLRDCISCASICGQHPKQCAYFCENKLR (receptor, phage library variant, format as m9) [TACI_d2 K73A]
Second: SLSCRKEQGEFYDHLLRDCISCASICGQHPKQCAYFCENKLR (receptor, phage library variant, format as m9) [TACI_d2 K77E]
The “F (APRIL)” value of the first is higher: 1.6 for the first, 1.4 for the second.

First: SLSCRKAQGKFYDHLLRDCISCASICGQHPKQCAYFCENKLR (receptor, phage library variant, format as m9) [TACI_d2 E74A]
Second: SLSCRKEQGKFYDHLLRACISCASICGQHPKQCAYFCENKLR (receptor, phage library variant, format as m9) [TACI_d2 D85A]
The “F (APRIL)” value of the first is higher: 0.7 for the first, 0.5 for the second.

First: SLSCRTEQGKFYDHLLRDCISCASICGQHPKQCAYFCENKLR (receptor, phage library variant, format as m9) [TACI_d2 K73T]
Second: SLSCRKEQGKFYDPLLRDCISCASICGQHPKQCAYFCENKLR (receptor, phage library variant, format as m9) [TACI_d2 H81P]
The “F (APRIL)” value of the first is higher: 5 for the first, 1.5 for the second.

SLSCRKEQGKFYDHLLRDCASCASICGQHPKQCAYFCENKLR (receptor, phage library variant, format as m9) [TACI_d2 I87A] and SLSCRKEQGKFYDHLLRDCISCASICAQHPKQCAYFCENKLR (receptor, phage library variant, format as m9) [TACI_d2 G94A] cannot be ordered by “F (APRIL)” value: > 27 for the first, 34 for the second.

SLSCRKEQGKFYDHLLRDCISCASICGQHPKQCAYFCENALR (receptor, phage library variant, format as m9) [TACI_d2 K107A] was tested, and the “F (APRIL)” value was 0.9.

Biological target: T2, human BAFF
Assay: shotgun scan, phage display
Excerpt: as §2

Going from SLSCRKEQGKFYAHLLRDCISCASICGQHPKQCAYFCENKLR (receptor, phage library variant, format as m9) [TACI_d2 D80A] to SLSCRKEQGTFYDHLLRDCISCASICGQHPKQCAYFCENKLR (receptor, phage library variant, format as m9) [TACI_d2 K77T], the “F (BAFF)” value falls from > 42 to 0.6.

Compared with SLSCRKEQGKFYDHLLRDCISCASICGQHPTQCAYFCENKLR (receptor, phage library variant, format as m9) [TACI_d2 K98T], SLSCRKEQGKFYDHLLRDCISCASICGQHPKQCAYFCENTLR (receptor, phage library variant, format as m9) [TACI_d2 K107T] is lower in “F (BAFF)” value: 8.7 for the first, 1.1 for the second.

Going from SLSCRKEQGKFYDHLLRDCISCASICGQHPKQCAYVCENKLR (receptor, phage library variant, format as m9) [TACI_d2 F103V] to SLSCRKEQGKFYDHLLRDCTSCASICGQHPKQCAYFCENKLR (receptor, phage library variant, format as m9) [TACI_d2 I87T], the “F (BAFF)” value rises from 0.7 to > 22.

Going from SLSCRKEQGKFYDHLLRDCVSCASICGQHPKQCAYFCENKLR (receptor, phage library variant, format as m9) [TACI_d2 I87V] to SLSCRKEQGKFYDHALRDCISCASICGQHPKQCAYFCENKLR (receptor, phage library variant, format as m9) [TACI_d2 L82A], the “F (BAFF)” value rises from 1.1 to > 36.

First: SLSCRAEQGKFYDHLLRDCISCASICGQHPKQCAYFCENKLR (receptor, phage library variant, format as m9) [TACI_d2 K73A]
Second: SLSCRKEQGEFYDHLLRDCISCASICGQHPKQCAYFCENKLR (receptor, phage library variant, format as m9) [TACI_d2 K77E]
The “F (BAFF)” value of the first is higher: 2 for the first, 0.9 for the second.

Compared with SLSCRKAQGKFYDHLLRDCISCASICGQHPKQCAYFCENKLR (receptor, phage library variant, format as m9) [TACI_d2 E74A], SLSCRKEQGKFYDHLLRACISCASICGQHPKQCAYFCENKLR (receptor, phage library variant, format as m9) [TACI_d2 D85A] is higher in “F (BAFF)” value: 0.6 for the first, 0.8 for the second.

First: SLSCRTEQGKFYDHLLRDCISCASICGQHPKQCAYFCENKLR (receptor, phage library variant, format as m9) [TACI_d2 K73T]
Second: SLSCRKEQGKFYDPLLRDCISCASICGQHPKQCAYFCENKLR (receptor, phage library variant, format as m9) [TACI_d2 H81P]
The “F (BAFF)” value of the first is higher: 8.9 for the first, 0.8 for the second.

First: SLSCRKEQGKFYDHLLRDCASCASICGQHPKQCAYFCENKLR (receptor, phage library variant, format as m9) [TACI_d2 I87A]
Second: SLSCRKEQGKFYDHLLRDCISCASICAQHPKQCAYFCENKLR (receptor, phage library variant, format as m9) [TACI_d2 G94A]
The “F (BAFF)” value of the first is higher: > 30 for the first, 10 for the second.

For SLSCRKEQGKFYDHLLRDCISCASICGQHPKQCAYFCENALR (receptor, phage library variant, format as m9) [TACI_d2 K107A], the “F (BAFF)” value was 1.1.
